One substance from patent US20130209464A1 can be followed below.

The target of the assay is HIV-1 MN strain envelope (Env) on Env-pseudotyped virus (HIV-1 MN strain) (UniProt P05877). As to the kind of experiment: cell-based or functional assay.
HIV-1 MN strain envelope (Env) on Env-pseudotyped virus (HIV-1 MN strain), sequence (P05877 32-856 limits assumed): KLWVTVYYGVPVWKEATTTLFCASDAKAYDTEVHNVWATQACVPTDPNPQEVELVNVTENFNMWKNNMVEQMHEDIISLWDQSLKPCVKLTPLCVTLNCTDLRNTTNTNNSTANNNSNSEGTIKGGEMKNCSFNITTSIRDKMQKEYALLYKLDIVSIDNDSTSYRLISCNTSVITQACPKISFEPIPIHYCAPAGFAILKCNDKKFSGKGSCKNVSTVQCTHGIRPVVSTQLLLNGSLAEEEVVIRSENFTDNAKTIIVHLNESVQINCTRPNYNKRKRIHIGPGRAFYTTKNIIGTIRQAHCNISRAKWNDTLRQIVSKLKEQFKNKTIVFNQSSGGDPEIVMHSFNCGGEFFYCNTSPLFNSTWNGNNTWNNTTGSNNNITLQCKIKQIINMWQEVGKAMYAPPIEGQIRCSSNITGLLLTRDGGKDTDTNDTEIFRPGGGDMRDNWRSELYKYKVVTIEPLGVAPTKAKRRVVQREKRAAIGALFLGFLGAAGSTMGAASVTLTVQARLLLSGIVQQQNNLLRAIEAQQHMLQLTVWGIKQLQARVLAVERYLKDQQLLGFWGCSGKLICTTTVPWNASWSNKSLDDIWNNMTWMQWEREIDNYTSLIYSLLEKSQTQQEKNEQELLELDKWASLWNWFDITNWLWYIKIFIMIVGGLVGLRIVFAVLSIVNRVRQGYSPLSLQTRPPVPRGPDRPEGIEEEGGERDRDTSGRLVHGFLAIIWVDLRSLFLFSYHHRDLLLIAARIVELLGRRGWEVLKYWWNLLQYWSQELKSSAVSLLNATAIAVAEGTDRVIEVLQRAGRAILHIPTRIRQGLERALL

In turn, “native actinohivin (AH) polypeptide (from UniProt Q9KWN0 47-160)” had a 50% inhibitory concentration (IC50), neutralization of Env-pseudotyped virus, TZM-bl luciferase reporter assay of 0.5 µg/mL.
